Key:
[1] = molecular target: N-terminal biotin labelled human CGRP (Abgent Custom Synthesized Peptide #355061532) (human) (UniProt P06881); test: ELISA; Fab captured on anti-human kappa; N-terminal biotin CGRP at 20 nM; 2 h dissociation step; neutravidin-AP detection
[2] = molecular target: N-terminal biotin labelled human CGRP (Abgent Custom Synthesized Peptide #355061532) (human) (UniProt P06881); test: ELISA; Fab captured on anti-human kappa; N-terminal biotin CGRP at 0.009 nM; 2 h dissociation step; neutravidin-AP detection
[3] = molecular target: N-terminal biotin labelled human CGRP (Abgent Custom Synthesized Peptide #355061532) (human) (UniProt P06881); test: ELISA; Fab captured on anti-human kappa; N-terminal biotin CGRP at 0.027 nM; 2 h dissociation step; neutravidin-AP detection
[4] = molecular target: N-terminal biotin labelled human CGRP (Abgent Custom Synthesized Peptide #355061532) (human) (UniProt P06881); test: ELISA; Fab captured on anti-human kappa; N-terminal biotin CGRP at 2.222 nM; 2 h dissociation step; neutravidin-AP detection
[5] = molecular target: N-terminal biotin labelled human CGRP (Abgent Custom Synthesized Peptide #355061532) (human) (UniProt P06881); test: ELISA; Fab captured on anti-human kappa; N-terminal biotin CGRP at 0.741 nM; 2 h dissociation step; neutravidin-AP detection
[6] = molecular target: N-terminal biotin labelled human CGRP (Abgent Custom Synthesized Peptide #355061532) (human) (UniProt P06881); test: ELISA; Fab captured on anti-human kappa; N-terminal biotin CGRP at 6.667 nM; 2 h dissociation step; neutravidin-AP detection
[7] = molecular target: N-terminal biotin labelled human CGRP (Abgent Custom Synthesized Peptide #355061532) (human) (UniProt P06881); test: ELISA; Fab captured on anti-human kappa; N-terminal biotin CGRP at 0.082 nM; 2 h dissociation step; neutravidin-AP detection
[8] = molecular target: N-terminal biotin labelled human CGRP (Abgent Custom Synthesized Peptide #355061532) (human) (UniProt P06881); test: ELISA; Fab captured on anti-human kappa; N-terminal biotin CGRP at 0.247 nM; 2 h dissociation step; neutravidin-AP detection
human CGRP (human) [9] = molecular target: human CGRP (human) (UniProt P06881); test: Quanterix Simoa sandwich assay; Antibody II beads capture, biotinylated CA11 detection; CGRP at 1.85 pg/mL
human CGRP (human) [10] = molecular target: human CGRP (human) (UniProt P06881); test: Quanterix Simoa sandwich assay; Antibody II beads capture, biotinylated CA11 detection; CGRP at 0.21 pg/mL
human CGRP (human) [11] = molecular target: human CGRP (human) (UniProt P06881); test: Quanterix Simoa sandwich assay; Antibody II beads capture, biotinylated CA11 detection; CGRP at 5.56 pg/mL
human CGRP (human) [12] = molecular target: human CGRP (human) (UniProt P06881); test: Quanterix Simoa sandwich assay; Antibody II beads capture, biotinylated CA11 detection; CGRP at 0.0076 pg/mL
human CGRP (human) [13] = molecular target: human CGRP (human) (UniProt P06881); test: Quanterix Simoa sandwich assay; Antibody II beads capture, biotinylated CA11 detection; CGRP at 0.62 pg/mL
human CGRP (human) [14] = molecular target: human CGRP (human) (UniProt P06881); test: Quanterix Simoa sandwich assay; Antibody II beads capture, biotinylated CA11 detection; CGRP at 16.67 pg/mL
human CGRP (human) [15] = molecular target: human CGRP (human) (UniProt P06881); test: Quanterix Simoa sandwich assay; Antibody II beads capture, biotinylated CA11 detection; CGRP at 0.07 pg/mL
human CGRP (human) [16] = molecular target: human CGRP (human) (UniProt P06881); test: Quanterix Simoa sandwich assay; Antibody II beads capture, biotinylated CA11 detection; CGRP at 0.02 pg/mL
human CGRP (human) [17] = molecular target: human CGRP (human) (UniProt P06881); test: Quanterix Simoa sandwich assay; Antibody II beads capture, biotinylated CA11 detection; CGRP at 50 pg/mL

Row | A560 [1] | A560 [2] | A560 [3] | A560 [4] | A560 [5] | A560 [6] | A560 [7] | A560 [8] | Average AEB (AEB (average enzyme per bead)) (human CGRP (human) [9]) | Average AEB (AEB (average enzyme per bead)) (human CGRP (human) [10]) | Average AEB (AEB (average enzyme per bead)) (human CGRP (human) [11]) | Average AEB (AEB (average enzyme per bead)) (human CGRP (human) [12]) | Average AEB (AEB (average enzyme per bead)) (human CGRP (human) [13]) | Average AEB (AEB (average enzyme per bead)) (human CGRP (human) [14]) | Average AEB (AEB (average enzyme per bead)) (human CGRP (human) [15]) | Average AEB (AEB (average enzyme per bead)) (human CGRP (human) [16]) | Average AEB (AEB (average enzyme per bead)) (human CGRP (human) [17]) | Binder
1 | 1.05 A560 | 0.082 A560 | 0.063 A560 | 0.688 A560 | 0.356 A560 | 1.03 A560 | 0.091 A560 | 0.165 A560 | – | – | – | – | – | – | – | – | – | CA11 Fab (Fab, V domains shown) VH: EVQLQQSGPELVKPGASVKMSCKASGYTFTRSVMHWVKQKPGQGLEWIGYINPYNDGTKYNEKFKGKATLTSDKSSSTAYMELSSLTSEDSAVYYCAKSGNDGYWGQGTTLTVSS VL: EIVLTQSPTTMAASPGEKITITCSASSSISSIYLHWYQQKPGFSPKVLIYRAKNLASGVPARFSGSGSGTSYSLTIGTMEAEDVATYYCQQGSTIPFTFGSGTKLEIK
2 | – | – | – | – | – | – | – | – | 0.13 | 0.02 | 0.42 | 0.0079 | 0.06 | 1.18 | 0.011 | 0.0075 | 2.99 | CA11 antibody (mouse IgG1/kappa) (antibody, V domains shown) VH: EVQLQQSGPELVKPGASVKMSCKASGYTFTRSVMHWVKQKPGQGLEWIGYINPYNDGTKYNEKFKGKATLTSDKSSSTAYMELSSLTSEDSAVYYCAKSGNDGYWGQGTTLTVSS VL: EIVLTQSPTTMAASPGEKITITCSASSSISSIYLHWYQQKPGFSPKVLIYRAKNLASGVPARFSGSGSGTSYSLTIGTMEAEDVATYYCQQGSTIPFTFGSGTKLEIKR

Source: US20190031748A1
